Laboratory results from patent publication US9133440B2, “Generation of new pancreatic beta cells” (priority 2012, dated 2015).

How the values were obtained:
Reg Receptor [1] = molecular target: T1, Reg Receptor (Homo sapiens, UniProt O43909); test: Direct binding of Perle peptides to purified Reg Receptor coated on 96 well plate (strep-HRP, absorbance at 405 nm); set-up: FLAG; made in house; host or cells: 293T cells (transient transfection, harvested after 72 hours); conditions: FIG. 9; for direct binding to the Reg Receptor: purified Reg Receptor coated on plate, peptides bound 1 hour at room temperature, absorbance at 405 nm; for strength of binding to the Reg Receptor relative to the other peptides tested: comparison among 7-, 8-, 9-amino acid Perle peptides, HIP and scrambled control
T1 sequence (O43909 1-919): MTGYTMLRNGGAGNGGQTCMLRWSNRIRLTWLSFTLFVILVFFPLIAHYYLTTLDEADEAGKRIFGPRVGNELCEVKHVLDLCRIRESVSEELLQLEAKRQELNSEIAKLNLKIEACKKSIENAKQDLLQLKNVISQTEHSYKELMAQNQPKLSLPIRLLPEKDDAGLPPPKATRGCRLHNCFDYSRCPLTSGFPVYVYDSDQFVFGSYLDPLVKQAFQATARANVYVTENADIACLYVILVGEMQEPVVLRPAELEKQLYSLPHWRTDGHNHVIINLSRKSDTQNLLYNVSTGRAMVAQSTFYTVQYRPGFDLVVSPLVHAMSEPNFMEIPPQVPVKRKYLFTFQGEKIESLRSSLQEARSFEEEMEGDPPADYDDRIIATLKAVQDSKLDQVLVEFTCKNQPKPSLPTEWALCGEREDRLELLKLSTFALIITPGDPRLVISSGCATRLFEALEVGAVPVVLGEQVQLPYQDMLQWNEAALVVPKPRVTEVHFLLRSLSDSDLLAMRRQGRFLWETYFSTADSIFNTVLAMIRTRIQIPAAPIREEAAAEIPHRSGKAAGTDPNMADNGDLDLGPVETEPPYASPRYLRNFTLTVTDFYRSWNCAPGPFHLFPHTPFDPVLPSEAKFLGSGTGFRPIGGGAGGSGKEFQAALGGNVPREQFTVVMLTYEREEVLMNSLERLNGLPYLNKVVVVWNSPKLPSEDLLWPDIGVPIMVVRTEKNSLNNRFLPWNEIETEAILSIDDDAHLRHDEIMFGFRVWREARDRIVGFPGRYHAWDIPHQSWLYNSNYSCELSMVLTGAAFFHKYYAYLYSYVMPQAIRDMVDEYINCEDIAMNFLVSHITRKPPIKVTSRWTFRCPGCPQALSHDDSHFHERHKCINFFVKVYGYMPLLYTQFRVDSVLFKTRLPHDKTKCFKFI
Method: Cells were collected after 72 hours. The Reg Receptor was tagged with FLAG epitope and FLAG resin was utilized to purify out the Reg Receptor. […] The Reg Receptor was purified by Anti-Flag M2 affinity gel. Target protein was confirmed by 4-12% SDS-PAGE and Western-blot. […] FIGS. 7b and 7c are the Western blot results showing that the purified protein is the Reg Receptor using the antibody to the Reg Receptor (CD104). The Reg Receptor is shown In FIG. 7 to be highly purified.
Plates were coated overnight coated plate and washed three times with 0.5×TBST and blocked with 3% BSA and rotated at room temperature for 1 hour. After blocking, plates were washed three times with 0.5×TBST. Peptides were then diluted with TBST buffer and added into wells in duplicate then left to bind at room temperature for 1 hour. After washing three times, 100 ng/ml strep-HRP was added into plate at 100 ul/well, and rotated at room temperature for one hour. ABST reagents were warmed to room temperature, mixed immediately before using. Then 100 ul was added to each well and read after 25 minutes reaction and absorbance was evaluated at 405 nm by a Spectramax M5 plate reader. The purified Reg Receptor was coated on plates. Then plates were blocked with BSA solution. Subsequently, the Perle peptides were added into the wells, and HRP-straptavidin and its substrates were added into the wells to reveal the interaction between Receptor and the Perle peptide.

[2] = molecular target: 20 amino acid Reg Receptor sequence (SEQ ID NO:9) (amino acids 117-136) (Homo sapiens, UniProt O43909); test: Enzyme ImmunoAssay titers of polyclonal antibodies raised to the 20-amino acid Reg Receptor sequence; type: binding; conditions: reference range of FIG. 13; bleed after day 0 and day 21 boosts
Method: FIGS. 11-13 were from studies undertaken to develop stimulatory antibodies to the Reg Receptor to accelerate the progression of beta cell formation by stimulating potential binding sites on the Reg Receptor. For the production of […] antibodies, many sequences were evaluated within the N-terminal portion of Reg receptor (amino acids 1-332) (SEQ ID NO:13), which is the amino acid region believed to be the binding domain for the Reg peptides within the Reg receptor that is not contained in the other members of the of Exostoses family, and thus is hypothesized to be the Reg binding domain.
Data sets were taken from the bleed after the day 0 and day 21 boosts. The animals were injected with a peptide of SEQ ID NO: 9 and were conjugated to keyhole limpet hemocyanin (KLH). […] At a dilution of 1:750,000, the absorbance fell within a range of 0.45 to 0.9. […]
Previous studies have identified that Reg proteins and peptides act through a 919-amino acid cell-surface protein. […] For the production of stimulatory antibodies, sequences were evaluated within the N-terminal portion of the putative Reg Receptor (amino acids 1-332) (SEQ ID NO:13), which is the amino acid region of Reg Receptor that is not contained in the other members of the of Exostoses family, and thus is hypothesized to be the Reg binding domain.

Reg Receptor [3] = molecular target: T1, Reg Receptor; test: Western blot analysis of Reg Receptor translocation from cytoplasmic membrane to nucleus in human extra-islet ductal cells; type: cell-based; conditions: Perle peptide 167 nM once a day for four days, cytosolic and nuclear fractions, shorter and longer exposure times
Method: Western blot analysis identified the presence of the Reg receptor on the cytoplasmic membrane and the movement of the Reg Receptor from the cytoplasmic membrane through the cytoplasm to the nucleus in the presence of the Perle peptides. Cytoplasmic extracts were obtained in 10 mM HEPES (pH 8.0), 1 mM EDTA, 1.5 mM MgCl2, 10 mM KCl, 0.5 mM DTT, 200 mM sucrose and 0.5% Nonidet P-40. Nuclear extracts were obtained in 20 mM HEPES (pH 7.9), 0.75 mM MgCl2, 210 mM NaCl, 50 mM KCl, 1 mM EDTA, 10% glycerol, and 0.5 mM DTT. Both extraction buffers contained 0.5 mM PMSF, 1 μg/ml leupeptin, 1 μg/ml aprotinin, 2.5 mM Na4P2O7, 1 mM β-glycerophosphate, and 1 mM Na3VO4. […] Secondary signals were developed with chemiluminescence substrate and analyzed by autoradiography. […]
Human extra-islet ductal cells were seeded in T75 flasks in Dulbecco's Modified Eagle media containing 10% fetal bovine serum. […] In these cell extracts the total protein levels were determined, and 50 micrograms of total protein were used to perform the western blot analysis. […]
Analyses were performed from cytoplasmic extracts were obtained in 10 mM HEPES (pH 8.0), 1 mM EDTA, 1.5 mM MgCl2, 10 mM KCl, 0.5 mM DTT, 200 mM sucrose and 0.5% Nonidet P-40. […] Secondary signals were developed with chemiluminescence substrate and analyzed by autoradiography. […]

[4] = test system: new small islets developing from non-endocrine tissue; conditions: cited from earlier work; for levels of new islet markers NGN3, NKX6.1, SOX9, and INS: five days after treatment; for increase in the volume of new small islets developing from non-endocrine tissue: in vivo
[5] = cited from earlier work

| Substance | direct binding to the Reg Receptor (Reg Receptor [1]) | strength of binding to the Reg Receptor relative to the other peptides tested (Reg Receptor [1]) | levels of new islet markers NGN3, NKX6.1, SOX9, and INS [4] | increase in the volume of new small islets developing from non-endocrine tissue [4] [fold] | also measured |
| --- | --- | --- | --- | --- | --- |
| WIGLHDP (listed as Homo sapiens) [SEQ. ID NO. 7, 7-amino acid Perle peptide within human Reg1a, Reg1b, Reg3a and Reg4] | demonstrated binding | – | – | – | direct binding to the Reg Receptor (Reg Receptor [1]; listed as 7-amino acid Perle peptide): bind directly |
| SEQ ID NO: 9: 20-amino acid binding site within the human Reg receptor (amino acids 117-136), used as immunogen (CKKSIENAKQDLLQLKNVIS; listed as Homo sapiens) | – | – | – | – | response to the antigen according to the polyclonal titer reference range [2]: high response |
| VWIGLHDP (listed as Homo sapiens) [SEQ. ID NO. 4, 8-amino acid Perle peptide within human Reg1a, Reg1b and Reg3a] | bind directly | greatest binding | – | – | translocation of the Reg Receptor from the cytoplasm to the nucleus (Reg Receptor [3]; listed as 8-amino acid Perle peptide): greatest ability; translocation of the Reg Receptor from the cytoplasm to the nucleus (Reg Receptor [3]; listed as 8-amino-acid Perle Peptide): greatest impact; strength of binding to the Reg Receptor relative to the other peptides tested (Reg Receptor [1]; listed as 8-amino acid peptide): strongest in binding |
| NVWIGLHDP (listed as Homo sapiens) [SEQ. ID NO. 1, 9-amino acid Perle peptide within human Reg1a and Reg1b] | demonstrated binding | – | – | – | direct binding to the Reg Receptor (Reg Receptor [1]; listed as 9-amino acid Perle peptide): bind directly |
| HIP: 14-amino Reg 3a peptide sequence (Human Proislet Peptide), prior art (IGLHDPTQGTEPNG; listed as Homo sapiens) [reference compound] | no direct binding | same level of binding as the scrambled peptide | increased levels | 2 | – |
| INGAP: 15-amino acid peptide within the hamster Reg3gamma peptide sequence, prior art (IGLHDPSHGTLPNGS; listed as Mesocricetus auratus) | – | – | increased levels | 2 | rise in stimulated C-peptide ([5]; human type 1 patients, by day 56, p<0.001): 27%; increase in stimulated C-peptide ([5]; type 1 patients, p=0.0057): 27% |
